# Measured values taken from patent US20200141935A1, “SYSTEM, METHOD, APPARATUS AND DIAGNOSTIC TEST FOR PREGNANCY” (BARCELONA INSTITUTE FOR GLOBAL HEALTH, priority 2017, published 2020).
# Columns and labels:
# [1] = test system: IgG; assay: Antibody dynamics during pregnancy (time to double, half-life, sero-reversion) from bead-based immunoassay; format: binding, pregnant Mozambican women; conditions: for Antibody dynamics Time to double weeks (95% CI): women with P. falciparum infection on follow-up, log-linear mixed-effects model
# Text: (§1) Two multiplex suspension array panels were constructed to quantify IgG responses against P. falciparum recombinant proteins and synthetic peptides, using the xMAP™ technology and the Luminex® 100/200™ System (Luminex® Corp., Austin, Tex.). MagPlex® microspheres (magnetic carboxylated polystyrene microparticles, 5.6 μm) with different spectral signatures were selected for each protein (DBL3X, DBL5ϵ, DBL6ϵ, AMA1 and MSP119), peptides (25 VAR2CSA peptides and pCSP), tetanus toxin and bovine serum albumin (BSA). Antigens were covalently coupled to beads following a modification of the Luminex® Corporation protocol. Protein and peptide multiplex arrays were prepared by pooling together equal volumes of coated beads. Plasma samples or the product of DBS elution were analyzed in duplicate at dilution 1:400 for the protein array and 1:100 for the peptide array. A hyperimmune plasma pool composed by 23 plasmas from malaria infected Mozambican pregnant women (HIP-VAR2CSA) was included in each assay plate, in addition to blanks (wells without sample) to assess background levels. A minimum of 50 microspheres were read per spectral signature and results were exported as crude median fluorescent intensity ([…]). Duplicates were averaged and background MFIs were subtracted. A total of 224 plates were analyzed and the intra-assay variation (mean CV of replicates from 20 plasma samples per plate) ranged from 1.4% to 7.3% for the protein array and from 2.5% to 12.4% for the peptide array. The inter-assay variation (variability of positive pool [HIP-VAR2CSA] between 224 plates) was 5% for the protein array and 26% for the peptide array. Results were normalized (nMFI) to account for plate-to-plate variation by […] the background subtracted MFI of each sample with the value of the positive pool in the same plate and dividing by the median of positive pools in all plates.
# The adjusted effect of infection on antibody levels was analyzed using log-linear mixed-effects regression models incorporating Gaussian random intercepts. […] Time to double the antibody levels (T2x) and half-lives were calculated in weeks from the estimated rates and the boundaries at 95% confidence interval obtained from mixed-effects models for subjects suffering a P. falciparum infection at follow-up independent of antibody status at recruitment (Ab[−or+]/Pf+) and subjects seropositive at recruitment and no infection detected on follow-up (Ab+/Pf−), respectively. In situations that the increase rate is a negative value (rate below 1) or the decay rate is a positive value (rate above 1), the calculated T2x or half-life was reported as infinity. Similarly, the time to sero-reversion was calculated for these subjects using the ratio of the seropositivity cutoff by the average antibody titers at recruitment as decay, i.e. how many times the average titers need to be reduced to be equal the cutoff.
# [2] = test system: IgG; assay: Multiplex bead-based immunoassay (Luminex): IgG levels (nMFI) against antigens, compared between groups; format: binding, pregnant women; conditions: for Immunoreactivity: recognition by IgGs at levels above BSA recognition: 641 pregnant Mozambican women 2003-2012, mean nMFI above mean BSA nMFI plus 3 SD; for Infection during pregnacy Infection vs no-infection ratio (95% CI): Mozambican women followed 2011-2012; for Exposure dependence Decrease 2010 vs 2003-2005 Ratio (95% CI) / Exposure dependence Increase 2011-2012 vs 2010 Ratio (95% CI): nMFI ratio at delivery, Mozambique, adjusted by parity, age, treatment and HIV; for PW Mz vs PW Bcn Ratio (95% CI) / Parasite density Low vs High ratio (95% CI): nMFI ratio; for PW Mz vs PW Bcn Ratio (95% CI): pregnant Mozambican women vs pregnant Spanish women (N=49); for Parasite density Low vs High ratio (95% CI): below or above 200 genomes per microliter
# Text: as §1
# (§2) Antibodies were eluted from DBS from Gabon, […] and Kenya, as previously described. Briefly, to achieve a concentration of eluted blood proteins equivalent to a 1:50 plasma dilution antibodies were eluted from four spots of approximately 3 mm in diameter with 200 μl Luminex® assay buffer (1% BSA, 0.05% sodium azide in filtrated PBS [Phosphate-buffered saline]). […]. Controls blood drops were artificially prepared using fresh erythrocytes (blood type 0, assuming a hematocrit approximately of 50%) and freeze plasma from 49 Spanish pregnant women. Filter papers were stored avoiding humidity at −20° C. in Barcelona.
# (§3) Presence or absence of antibodies was defined by finite mixture models (FMM) for pregnancy-specific antigens (VAR2CSA peptides and recombinant domains) and by the mean plus 3 standard deviation (SD) of IgG response from pregnant women from Barcelona for general malaria antigens (AMA1, MSP119, and pCSP).
# (§4) Data was fitted to a normal distribution by logarithmic transformation of nMFIs. Participant's baseline characteristics and parasitological outcomes were compared between study times and areas by univariate analysis (Fisher's tests for binary outcomes or t-Student test for continuous outcomes). Responses were considered not restricted to malaria when seroprevalences were 5% or high among Spanish pregnant women.
# Linear regression models were used to compare antibody levels from Mozambican and Spanish pregnant women. The capacity of antibody levels to mimic malaria trends in Mozambique was analyzed by linear regression models (2010 was compared with 2003-2005 corresponding to a trend of malaria decrease and 2011-2012 with 2010 to a trend of increase) adjusted by treatment, parity, age and HIV.
# The impact of P. falciparum infection during pregnancy on antibodies at delivery was assessed in linear regression models adjusted by age, parity, HIV and treatment. Changes in antibody levels due to parasite density (below or above 200) were assessed by linear regression models adjusted by age, parity, HIV and treatment. […]
# [3] = test system: IgG; assay: Multiplex bead-based immunoassay: seroprevalence (finite mixture models or negative control cutoff); format: binding, pregnant women; conditions: for SeroPrev Delivery %: 239 pregnant Mozambican women followed 2011-2012; for Seroprevalence MQ (%): IPTp with mefloquine; for Seroprevalence K (%): Kenya; for Seroprevalence K (%) / Seroprevalence M (%) / Seroprevalence B (%) / Seroprevalence G (%): at delivery; for MQ (OR): Placebo as reference; for M (OR) / Seroprevalence M (%): Mozambique; for Seroprevalence PL (%): Placebo group; for Seroprevalence A (%) / A (OR): anemia; for A (OR): Non-A as reference; for Seroprevalence Non-A (%): non anemia; for Seroprevalence B (%): Benin; for G (OR) / Seroprevalence G (%): Gabon; for Seroprevalence SP (%): IPTp with sulfadoxine-pyrimethamine; for SP (OR): MQ as reference; for SeroPrev PW Bcn (%): seroprevalence among pregnant Spanish women never exposed to malaria; for Decrease (OR): seroprevalence odds ratio 2010 vs 2003/5, Mozambique; for Decrease (OR) / Increase (OR): adjusted; for Increase (OR): seroprevalence odds ratio 2011/12 vs 2010, Mozambique
# Text: as §1, §2, §3, §4
# Seroprevalences between countries (Benin, Gabon and Mozambique for HIV-uninfected and Kenya and Mozambique for HIV-infected), between IPTp intervention group (MQ vs SP for HIV-uninfected and MQ vs Placebo for HIV infected) and anemia status were compared by logistic regression models adjusted by parity, age and treatment.
# The modification of the associations by HIV infection or parity was assessed by including interaction terms into the regression models.
# [4] = HIV infected, Kenya as reference
# [5] = HIV uninfected, Benin as reference
# [6] = Mozambican pregnant women at delivery
molecule,measurement,setting,value
pcsp: circumsporozoite peptide of 64 aminoacids (NVDP[NANP]15) (peptide) peptide: NVDPNANPNANPNANPNANPNANPNANPNANPNANPNANPNANPNANPNANPNANPNANPNANP,Antibody dynamics Time to double weeks (95% CI),[1],51.33 (22.30; ∞) weeks
same,Immunoreactivity: recognition by IgGs at levels above BSA recognition,[2],above BSA recognition
same,Infection during pregnacy Infection vs no-infection ratio (95% CI),"[2]; nMFI at delivery, adjusted",3.1 (1.75; 5.49)
same,Exposure dependence Decrease 2010 vs 2003-2005 Ratio (95% CI),[2],0.49 (0.34; 0.71)
same,Exposure dependence Increase 2011-2012 vs 2010 Ratio (95% CI),[2],1.1 (0.80; 1.52)
same,PW Mz vs PW Bcn Ratio (95% CI),[2],8.2 (4.84; 13.87)
same,Parasite density Low vs High ratio (95% CI),[2]; adjusted,1.81 (0.75; 4.37)
same,SeroPrev Delivery %,[3],64%
same,Seroprevalence MQ (%),[3]; HIV infected,12%
same,Seroprevalence K (%),[3]; HIV infected,21%
same,MQ (OR),[3]; HIV infected,0.69 (0.44; 1.07)
same,M (OR),[3]; [4],0.41 (0.26; 0.64)
same,Seroprevalence M (%),[3]; HIV infected,10%
same,Seroprevalence PL (%),[3]; HIV infected,17%
same,Seroprevalence A (%),[3]; HIV infected,12%
same,A (OR),[3]; HIV infected,0.86 (0.52; 1.41)
same,Seroprevalence Non-A (%),[3]; HIV infected,17%
same,Seroprevalence B (%),[3]; HIV uninfected,44%
same,G (OR),[3]; [5],0.37 (0.24; 0.57)
same,Seroprevalence G (%),[3]; HIV uninfected,23%
same,Seroprevalence MQ (%),[3]; HIV uninfected,31%
same,Seroprevalence SP (%),[3]; HIV uninfected,34%
same,M (OR),[3]; [5],0.19 (0.14; 0.26)
same,Seroprevalence M (%),[3]; HIV uninfected,13%
same,SP (OR),[3]; HIV uninfected,1.08 (0.84; 1.38)
same,Seroprevalence A (%),[3]; HIV uninfected,34%
same,A (OR),[3]; HIV uninfected,1.19 (0.94; 1.51)
same,Seroprevalence Non-A (%),[3]; HIV uninfected,31%
same,Seroprevalence 2003/4 (%),[3]; [6],48%
same,Seroprevalence 2005 (%),[3]; [6],57%
same,Seroprevalence 2010 (%),[3]; [6],36%
same,Seroprevalence 2011 (%),[3]; [6],40%
same,Seroprevalence 2012 (%),[3]; [6],46%
same,SeroPrev PW Bcn (%),[3],10%
same,Decrease (OR),[3],0.43 (0.27; 0.69)
same,Increase (OR),[3],1.19 (0.80; 1.78)
"MSP119: recombinant merozoite surface protein-1, 19-kDa, from 3D7 strain (protein) NISQHQCVKKQCPENSGCFRHLDEREECKCLLNYKQEGDKCVENPNPTCNENNGGCDADATCTEEDSGSSRKKITCECTKPDSYPLFDGIFCS",Antibody dynamics Sero-revertion weeks (95% CI),"[1]; time to sero-negativisation, seropositive at recruitment, no infection on follow-up",385.42 (207.36; 2728.50) weeks
same,Antibody dynamics Time to double weeks (95% CI),[1],31.69 (15.65; ∞) weeks
same,Immunoreactivity: recognition by IgGs at levels above BSA recognition,[2],above BSA recognition
same,Infection during pregnacy Infection vs no-infection ratio (95% CI),"[2]; nMFI at delivery, adjusted",3.69 (1.83; 7.46)
same,Parity MG vs PG ratio (95% CI),"[2]; nMFI at delivery, multigravid vs primigravid Mozambican women, adjusted",1.6 (0.6; 4.29)
same,Exposure dependence Decrease 2010 vs 2003-2005 Ratio (95% CI),[2],0.43 (0.28; 0.65)
same,Exposure dependence Increase 2011-2012 vs 2010 Ratio (95% CI),[2],0.88 (0.60; 1.30)
same,PW Mz vs PW Bcn Ratio (95% CI),[2],85.07 (46.72; 154.9)
same,Parasite density Low vs High ratio (95% CI),[2]; adjusted,2.55 (0.98; 6.63)
same,SeroPrev Delivery %,[3],89%
same,Seroprevalence MQ (%),[3]; HIV infected,85%
same,Seroprevalence K (%),[3]; HIV infected,88%
same,MQ (OR),[3]; HIV infected,0.84 (0.54; 1.32)
same,M (OR),[3]; [4],0.73 (0.46; 1.16)
same,Seroprevalence M (%),[3]; HIV infected,85%
same,Seroprevalence PL (%),[3]; HIV infected,87%
same,Seroprevalence A (%),[3]; HIV infected,85%
same,A (OR),[3]; HIV infected,0.90 (0.56; 1.45)
same,Seroprevalence Non-A (%),[3]; HIV infected,87%
same,Seroprevalence B (%),[3]; HIV uninfected,99%
same,G (OR),[3]; [5],0.08 (0.04; 0.18)
same,Seroprevalence G (%),[3]; HIV uninfected,84%
same,Seroprevalence MQ (%),[3]; HIV uninfected,94%
same,Seroprevalence SP (%),[3]; HIV uninfected,94%
same,M (OR),[3]; [5],0.13 (0.07; 0.26)
same,Seroprevalence M (%),[3]; HIV uninfected,89%
same,SP (OR),[3]; HIV uninfected,1.02 (0.63; 1.66)
same,Seroprevalence A (%),[3]; HIV uninfected,94%
same,A (OR),[3]; HIV uninfected,0.95 (0.60; 1.51)
same,Seroprevalence Non-A (%),[3]; HIV uninfected,95%
same,Seroprevalence in Tanzania,"[3]; HIV-uninfected women, area of Tanzania where no malaria infection was observed",48%
same,Seroprevalence in 2003-2005,"[3]; Mozambican pregnant women at delivery, 2003-2005 pooled",94%
same,Seroprevalence 2003/4 (%),[3]; [6],90%
same,Seroprevalence 2005 (%),[3]; [6],99%
same,Seroprevalence 2010 (%),[3]; [6],94%
same,Seroprevalence 2011 (%),[3]; [6],84%
same,Seroprevalence in 2011-2012,"[3]; Mozambican pregnant women at delivery, 2011-2012 pooled",87%
same,Seroprevalence 2012 (%),[3]; [6],90%
same,SeroPrev PW Bcn (%),[3],4%
same,Decrease (OR),[3],0.81 (0.31; 2.14)
same,Increase (OR),[3],0.37 (0.19; 0.74)
